Data published in US20230002480A1.

Columns and labels:
Assay in all cases: cell-based or functional assay
[1] = target: HIV-1 Env of pseudovirus CNE17 (HIV-1)
[2] = target: HIV-1 Env of pseudovirus Ce704809221_1B3 (HIV-1)
[3] = target: HIV-1 Env of pseudovirus 1056_10_TA11_1826 (HIV-1)
[4] = target: HIV-1 Env of pseudovirus CNE52 (HIV-1)
[5] = target: HIV-1 Env of pseudovirus CNE20 (HIV-1)
[6] = target: HIV-1 Env of pseudovirus 1012_11_TC21_3257 (HIV-1)
[7] = target: HIV-1 Env of pseudovirus 7030102001E5(Rev-) (HIV-1)
[8] = target: HIV-1 Env of pseudovirus Ce1176_A3 (HIV-1)
[9] = target: HIV-1 Env of pseudovirus 1006_11_C3_1601 (HIV-1)
[10] = target: HIV-1 Env of pseudovirus CNE21 (HIV-1)
[11] = target: HIV-1 Env of pseudovirus ZM135M.PL10a (HIV-1)
[12] = target: HIV-1 Env of pseudovirus Du172.17 (HIV-1)
[13] = target: HIV-1 Env of pseudovirus SC05_8C11_2344 (HIV-1)
[14] = target: HIV-1 Env of pseudovirus 249M B10 (HIV-1)
[15] = target: HIV-1 Env of pseudovirus 1054_07_TC4_1499 (HIV-1)
[16] = target: HIV-1 Env of pseudovirus Ce703010054_2A2 (HIV-1)
[17] = target: HIV-1 Env of pseudovirus Ce1086_B2 (HIV-1)
[18] = target: HIV-1 Env of pseudovirus Q842.d12 (HIV-1)
[19] = target: HIV-1 Env of pseudovirus CNE19 (HIV-1)
[20] = target: HIV-1 Env of pseudovirus ZM53M.PB12 (HIV-1)
[21] = target: HIV-1 Env of pseudovirus AC10.0.29 (HIV-1)
[22] = target: HIV-1 Env of pseudovirus TRJO4551.58 (HIV-1)
[23] = target: HIV-1 Env of pseudovirus ZM233M.PB6 (HIV-1)

Substance: N49P19 (antibody)
- IC50 [1]: > 50 µg/mL
- IC80 [1]: > 50 µg/mL
- MPI [1]: 30
- IC50 [2]: 3.75 µg/mL
- IC80 [2]: 19.2 µg/mL
- MPI [2]: 93
- IC50 [3]: 0.925 µg/mL
- IC80 [3]: 3.15 µg/mL
- MPI [3]: 100
- IC50 [4]: 0.175 µg/mL
- IC80 [4]: 0.491 µg/mL
- MPI [4]: 100
- IC50 [5]: 0.124 µg/mL
- IC80 [5]: 0.817 µg/mL
- MPI [5]: 99
- IC50 [6]: 0.204 µg/mL
- IC80 [6]: 0.895 µg/mL
- MPI [6]: 100
- IC50 [7]: 0.95 µg/mL
- IC80 [7]: 4.7 µg/mL
- MPI [7]: 100
- IC50 [8]: 1.57 µg/mL
- IC80 [8]: 9.84 µg/mL
- MPI [8]: 99
- IC50 [9]: 0.4 µg/mL
- IC80 [9]: 1.33 µg/mL
- MPI [9]: 100
- IC50 [10]: > 50 µg/mL
- IC80 [10]: > 50 µg/mL
- MPI [10]: 21
- IC50 [11]: > 50 µg/mL
- IC80 [11]: > 50 µg/mL
- MPI [11]: 0
- IC50 [12]: > 50 µg/mL
- IC80 [12]: > 50 µg/mL
- MPI [12]: 30
- IC50 [13]: 0.954 µg/mL
- IC80 [13]: 3.3 µg/mL
- MPI [13]: 100
- IC50 [14]: > 50 µg/mL
- IC80 [14]: > 50 µg/mL
- MPI [14]: 39
- IC50 [15]: 2.85 µg/mL
- IC80 [15]: 11.7 µg/mL
- MPI [15]: 99
- IC50 [16]: > 50 µg/mL
- IC80 [16]: > 50 µg/mL
- MPI [16]: 0
- IC50 [17]: 0.613 µg/mL
- IC80 [17]: 2.68 µg/mL
- MPI [17]: 97
- IC50 [18]: 0.182 µg/mL
- IC80 [18]: 0.601 µg/mL
- MPI [18]: 100
- IC50 [19]: 20.7 µg/mL
- IC80 [19]: > 50 µg/mL
- MPI [19]: 59
- IC50 [20]: 1.19 µg/mL
- IC80 [20]: 4.14 µg/mL
- MPI [20]: 100
- IC50 [21]: > 50 µg/mL
- IC80 [21]: > 50 µg/mL
- MPI [21]: 13
- IC50 [22]: 1.23 µg/mL
- IC80 [22]: 5.4 µg/mL
- MPI [22]: 99
- IC50 [23]: > 50 µg/mL
- IC80 [23]: > 50 µg/mL
- MPI [23]: 4

Substance: N49P9 (antibody)
- IC50 [1]: 0.364 µg/mL
- IC80 [1]: 1.7 µg/mL
- MPI [1]: 100
- IC50 [2]: 0.133 µg/mL
- IC80 [2]: 0.605 µg/mL
- MPI [2]: 100
- IC50 [3]: 0.386 µg/mL
- IC80 [3]: 1.32 µg/mL
- MPI [3]: 100
- IC50 [4]: 0.026 µg/mL
- IC80 [4]: 0.09 µg/mL
- MPI [4]: 100
- IC50 [5]: 0.465 µg/mL
- IC80 [5]: 2.43 µg/mL
- MPI [5]: 97
- IC50 [6]: 0.194 µg/mL
- IC80 [6]: 0.591 µg/mL
- MPI [6]: 100
- IC50 [7]: 0.453 µg/mL
- IC80 [7]: 2.03 µg/mL
- MPI [7]: 100
- IC50 [8]: 0.258 µg/mL
- IC80 [8]: 0.919 µg/mL
- MPI [8]: 100
- IC50 [9]: 0.076 µg/mL
- IC80 [9]: 0.231 µg/mL
- MPI [9]: 100
- IC50 [10]: > 50 µg/mL
- IC80 [10]: > 50 µg/mL
- MPI [10]: 36
- IC50 [11]: 0.224 µg/mL
- IC80 [11]: 0.863 µg/mL
- MPI [11]: 97
- IC50 [12]: 0.023 µg/mL
- IC80 [12]: 0.178 µg/mL
- MPI [12]: 100
- IC50 [13]: 0.473 µg/mL
- IC80 [13]: 1.61 µg/mL
- MPI [13]: 100
- IC50 [14]: 0.203 µg/mL
- IC80 [14]: 1.41 µg/mL
- MPI [14]: 97
- IC50 [15]: 0.885 µg/mL
- IC80 [15]: 2.44 µg/mL
- MPI [15]: 100
- IC50 [16]: 0.187 µg/mL
- IC80 [16]: 0.898 µg/mL
- MPI [16]: 98
- IC50 [17]: 0.341 µg/mL
- IC80 [17]: 1.69 µg/mL
- MPI [17]: 97
- IC50 [18]: 0.019 µg/mL
- IC80 [18]: 0.057 µg/mL
- MPI [18]: 100
- IC50 [19]: 0.031 µg/mL
- IC80 [19]: 0.136 µg/mL
- MPI [19]: 100
- IC50 [20]: 0.362 µg/mL
- IC80 [20]: 1.14 µg/mL
- MPI [20]: 100
- IC50 [21]: 0.285 µg/mL
- IC80 [21]: 0.986 µg/mL
- MPI [21]: 100
- IC50 [22]: 0.036 µg/mL
- IC80 [22]: 0.128 µg/mL
- MPI [22]: 100
- IC50 [23]: > 50 µg/mL
- IC80 [23]: > 50 µg/mL
- MPI [23]: 48
